Laboratory results: article PMC10202384

Target: recombinant monomeric RBD of the SARS-CoV-2 spike protein, tag cleaved, labelled with Alexa Fluor 488 (SARS-CoV-2) (UniProt P0DTC2)
Assay: fluorescence polarisation

Work on “platelet-derived purified human αIIbβ3 protein (from UniProt P05106 27-788) (complex)” yielded a Kd of 96 nM and a stoichiometry N of 1.3.
